Assay results: patent publication US20160041182A1 (Janssen / Centocor, published 2016)

T1: mouse IL-17A (mouse, UniProt Q62386 26-158, limits assumed)
T1 construct: In SPR it was injected in solution, and no biotinylation is mentioned there; also called mIL-17A; mIL17A
T1 sequence (looked up): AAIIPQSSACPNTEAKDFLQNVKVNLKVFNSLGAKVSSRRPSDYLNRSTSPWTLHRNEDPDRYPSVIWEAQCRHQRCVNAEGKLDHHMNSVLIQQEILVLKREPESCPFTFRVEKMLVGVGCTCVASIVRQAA


Columns and labels:
mouse IL-17A [1] = target: T1, mouse IL-17A; test: SPR (ProteOn XPR-36), clone amine-coupled on chip, mIL-17A in solution, 1:1 Langmuir fit
Procedure: The affinities of select molecules binding to mIL-17A were measured using surface Plasmon resonance using a ProteOn XPR-36 instrument (Bio-Rad). Purified molecules were directly immobilized on the chip via amine coupling with varying densities (100˜300 Rus) at pH 5.0 and a flow rate of 30 μL/min for 5 minutes mIL-17A at 100 nM diluted in a 3-fold concentration series was tested for their binding to different molecules on the chip surface. The dissociation phases for all concentrations of all samples was monitored for 1˜2 hours at a flow rate of 100 μL/min depending on their off-rate. A buffer sample was injected to monitor the baseline stability and the surface was not regenerated for further use. The response data for all concentration series for each of the different surfaces of the scaffold molecules selected from the TLC14 library were globally fit to a 1:1 simple langmuir binding model to extract estimates of the kinetic (kₒₙ, koff) and affinity (KD) constants. As summarized in Table 9, affinities of the scaffold molecules specifically binding mIL-17A were at a subnanomolar range. Sequences of select mIL-17A binders are shown in SEQ ID NOS: 85-96, and the sequences of the C and F beta-strands and the CD and the FG loops in Table 10.

mouse IL-17A [2] = target: T1, mouse IL-17A; test: competition ELISA: purified His-tagged clone against biotinylated mIL-17A binding to coated mIL-17A receptor Fc
Procedure: An inhibition assay was performed to determine if the round 5 and 9 panning outputs against mouse IL-17A (mIL-17A) inhibited binding of mIL-17A to the mIL-17A receptor. Maxisorp plates were coated with 0.2 μg/ml mIL-17A receptor Fc fusion (R&D Systems, Minneapolis, Minn.) overnight, washed with Phosphate-Buffered Saline (PBS), pH 7.4 with 0.05% Tween-20 […] and blocked with 2% BSA, 5% Sucrose in PBS. 10 ng/ml biotinylated-mIL17A (b-mIL-17A) was added into the clarified bacterial lysates diluted 1:50 in 1% BSA in PBS, and the mixtures were incubated for 20 minutes. The blocked plates were washed and the bacterial lysates/b-mIL-17A incubations were transferred onto the plates. The plates were incubated for an additional hour, washed with PB ST, and the biotinylated protein detected with streptavidin-HRP (Jackson Immunoresearch, West Grove, Pa.) and OPD colorimetric substrate (Sigma-Aldrich, St. Louis, Mo.). Absorbance at 490 nm was read using an M5 plate reader (Molecular Devices, Sunnyvale, Calif.) and the data converted to % inhibition. Percent inhibition for mIL-17A:mIL-17 receptor binding was defined as 100−(sample/negative control×100).
Select bacterial lysates containing the scaffold molecules inhibiting the mIL-17A:mIL-17 receptor interaction were further characterized in a dose response inhibition assay using the protocol described above, except that 100 μl of purified TCL14-His (Ni-NTA) fusion proteins were used in the assays between concentrations of 10 μM to 56 pM. IC50 values were calculated from the dose response curves using a sigmoidal dose response fit.

Binder | Kd (mouse IL-17A [1]) [nM] | koff (mouse IL-17A [1]) [s⁻¹] | kon (mouse IL-17A [1]) [M⁻¹ s⁻¹] | IC50 (mouse IL-17A [2]) [nM]
TP1KR9P62-D3 (designed binder, also called TCL14-His fusion protein) MLPAPKNLVVSRVTEDSARLSWTAPDAAFDSFAIEYFEDWWSGEAIVLTVPGSERSYDLTLKPGTEYSVSIRGVKGGYPSSPLSAIFTT | 0.554 | 6.07e-05 | 110000 | 0.0912
TP1KR9P61-G4 (designed binder, also called TCL14-His fusion protein) MLPAPKNLVVSRVTEDSARLSWTAPDAAFDSFAIEYFEDWWSGEAIVLTVPGSERSYDLTGLKPGTEYAVSIRGVKGGYPSAPLSAIFTT | 0.309 | 5.02e-05 | 162000 | 0.00883
TP1KR9P62-A2 (designed binder, also called TCL14-His fusion protein) MLPALKNLVVSRVTEDSAHLSWTAPDAAFDSFAIEYSEDYWLGEAIVLTVPGSERSYDLTGLKPGTEYGVSIRGVKGGYPSPPLSAIFTT | 0.0531 | 2.17e-05 | 408000 | 0.261
TP1KR9P62-C6 (designed binder, also called TCL14-His fusion protein) MLPAPKNLVVSRVTEDSARLSWTAPDAAFDSFAIEYFEDWWSGEAIVLTVPGSERSCDLTGLKPGTEYSVTIRGVKGGYPSSPLSAIFTT | 0.0212 | 1.2e-05 | 568000 | 0.109
TP1KR9P61-A2 (designed binder, also called TCL14-His fusion protein) MLPAPKNLVVSRVTEDSARLSWTAPDAAFDSFAIEYFEDWWSGEAIVLTVPGSERSYDLTGLKPGTEYAVSIRGVKGGMPSAPLSAIFTT | 0.287 | 3.93e-05 | 137000 | 0.0339
TP1KR9P62-D8 (designed binder, also called TCL14-His fusion protein) MLPAPKNLVVSRVTEDSARLSWTAPDAAFDSFAIEYFEDWWSGEAIVLTVPGSERSYDLTGLKPGTEYGVSIRGVKGGLASPPLSAIFTT | 0.0389 | 1.48e-05 | 381000 | 0.427
TP1KR9P62-D4 (designed binder, also called TCL14-His fusion protein) MLPAPKNLVVSRVTEDSARLSWTAPDAAFDSFGIIYFEDWWAGEAIVLTVPGSERSYDLTGLKPGTEYGVSIRGVKGGPPSRPLSAIFTT | ≤ 0.0952 | ≤ 1e-05 | 105000 | 0.242
TP1KR9P62-H10 (designed binder, also called TCL14-His fusion protein) MLPAPKNLVVSRVTEDSARLSWTAPDAAFDSFAIEYFEDWWSGEAIVLTVPGSERSYDLTGLKPGTEYSVSIRGVKGGHPSVPLSAIFTT | 0.0482 | 2.11e-05 | 438000 | 0.302
TP1KR9P61-E2 (designed binder, also called TCL14-His fusion protein) MLPAPKNLVVSRVTEDSARLSWTAPDAAFDSFAIEYFEDWWSGEAIVLTVPGSERSYDLTGLKPGTEYAVSIRGVKGGMPSPPLSAIFTT | 0.27 | 3.96e-05 | 147000 | 0.0428
TP1KR9P62-E3 (designed binder, also called TCL14-His fusion protein) MLPAPKNLVVSRVTEDSARLSWTAPDAAFDSFGIEYFEDYWTGEAIVLTVPGSERSYDLTGLKPGTEYAVSIRGVKGGYPSAPLSAIFTT | 0.464 | 5.26e-05 | 113000 | 0.0642
TP1KR9P61-A7 (designed binder, also called TCL14-His fusion protein) MLPAPKNLVVSRVTEDSARLSWTAPDAAFDSFAIEYFEDWWSGEAIVLTVPGSERSYDLTGLKPGTEYSVSIRGVKGGYPSSPLSAIFTT | 0.421 | 3.46e-05 | 82000 | 0.0558
TP1KR9P62-C3 (designed binder, also called TCL14-His fusion protein) MLPAPKNLVVSRVTEDSARLSWTAPDAAFDSFAIEYFEDWWSGEAIVLTVPGSERSYDLTGLKPGTEYSVTIRGVKGGPPSSPLSAIFTT | 0.0374 | 1.05e-05 | 281000 | 0.117
